Source: the nanobody polyreactivity screen of Harvey et al. (2022)

experiment: yeast display, Sf9 membrane polyspecificity reagent, FACS + sequencing; frameworks hold sequencing errors
Procedure, shortened: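 Galactose-induced (36–48 hours) yeast carrying a synthetic nanobody display library were exposed to 10% biotinylated, detergent-solubilized Sf9 membrane reagent at 4 °C for 1 hour. FACS followed streptavidin microbead enrichment, using low and high (top ~1%) gates for expression (anti-HA) and reagent binding (streptavidin). Colony PCR, MiSeq 2 × 250 sequencing and CDR-length filtering followed. Labels for polyreactivity reflect the gate of origin.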

Sequence | polyreactivity (PSR sort gate)
QVKLVESGGGLVQAGGSLRLSCAASGGIFTDYTMGWSRQAPGKERELVAAITWTGGSTYYADSVKGRFTISRYNAKNTVYLQMNSLKPEDTAVYYCSADDYWVNLDYWGQGTQVNVSS | low polyreactivity
QVKLVESGGGLVQAGGSLRLSCAASGLIFQKYAMGWYRQPPGKERELVAAISGGGRTYYADSVKGRFTISRDNSKNTVYLQMNSMKPEDTAVYYCAVYWYYLGYYYYYDFDYWGQGTQVTVSS | high polyreactivity
QVKLVESGGGLVQAGGSLRLSCAASGRICLSYTMGWYRQAPGKERELVATIDSGVSTNYADSVKGRFTITRDNAKNTVYVQMNSLKPEDTAVYYGNADGFYSSHGYDYWGQGTQVTVSS | low polyreactivity
QVKLVESGGGLVQAGGSLRLSCAASGRTFGVYAMGWYRQAPGKEREFVATITSRGGRTYYADSVKGRFTISRDNAKNTVYLQMNSLKPEDTAVYYCAVGRGSLRGRTDGGYWGQGTQVTVSS | high polyreactivity
QVKLVESGGGLVQAGGSLRLSCAASGRTISGNAMGWYRQAPGKERELVATISGRGGSTYYADSVKGSFTISRDNAKNTVYLQMTSLKPEDTAVYYCAKRLYSRRPLMDSWGQGTQVTVSS | high polyreactivity
QVKLVESGGGLVQAGGSLRLSCAASGRTLGGYAMRWYRQAPGKERQLVAAITRRGGSRYYADTVKGRFTISRDNAKNTVYLQMNSLKPEDSAVYYCAARWYARSLTRFNYWGKGTQVTVSS | high polyreactivity
QVKLVESGGGLVQAGGSLRLSCAASGSIFSRNTIGCDRQEPGKERELVAGISSSGSRTYYADSVKGRFTISRDNAKNTVYLQMNSLIPEDTAVYYCAAEHQRSRGRRYYIGYDYWGQGTQVTVSS | low polyreactivity
QVKLVESGGGLVQAGGSLRLSCAASGSIYWYAMGWYRQAPGKERELVAAISRRGGSTYYADSVKGRFTISRDNAKNTVYLQMNSLKPEDTAVYYCAVGIYGEYDYWGQGTQVTVSS | high polyreactivity
QVKLVESGGGLVQAGGSLRLSCAASGSTFGINARGWYRQAPGKERELVAAITFISGSTNYADSVKGRFTISRDNAKNTVYLQMNSLKPEDTAVYYCAARCTSTPVYSRYGYWGQGTQVTVSS | low polyreactivity
QVKLVESGGGLVQAGGSLRLSCAASGSTFLIYAMGWYRQAPGKERELVAAITVSGGDTYYADSVKGRFTISRDNAKNTVYLQMNSLKPEDTAVYYCAAEGGNDYSSVDAGISYDYWGQGTQVTVSS | low polyreactivity
QVKLVESGGGLVQAGGSLRLSCAASGSTFVVNAMGCYRQAPGKERELVAAITQSGGSTFYADSVKGRFTISRDNAKNTVYLQMNSLKPEDTAVYYCAADTYYYYWFACYTEYDYWGQGTQVTVSS | low polyreactivity
QVKLVESGGGLVQAGGSLRLSCAAYGSTFAYNAMGWYRQAPGKERELVADISWSGGSTYYADSVKGRFTISRDNAKNTVYLQMNSLNPEDTAVYYCATEYSEGITQFFWATDYDYWGQGSQVTVSS | high polyreactivity
QVKLVESGGGLVQAGGSLRLSCADSGRTFYYNTMGWYRQAPGKERELVADITISGGSTYYADSVKGRFTISRDNAKNTVYLQMKSLKPEDTAVYYCAAGWFSLSTAYYHKRVGYNYWGQGTQVTVSS | high polyreactivity
QVKLVESGGGLVQAGGSLRLSCAPSARIFDIYPLGWSRQAPGKERELVAGITSVGSTNYADSVKGRFTISRDNAKYTVYLQMTSLNPEDTAVYDCASVTSVHSEVDYWGQGTQVTVSS | low polyreactivity
QVKLVESGGGLVQAGGSLRLSCHASGFTFPYYAMGWYRQAPGKERELVAAISQIGDRTYYADSVKGRFTISRDNAKNTVYLQMNSLKPEDTAVYYCNGAGKVRKYGYWGQGTQVTVSS | high polyreactivity
QVKLVESGGGLVQAGGSLSLSCDASGNTFVRNVMGSYRQEPGKERELLAAIRSGTRTYYADSVKGRFTISRDNAKNTVYLQINSLKPEDTAVYYCATYRTYNSYRYDYWGQGTQVTVSS | high polyreactivity
QVKLVESGGGLVQSGGSLRLRCAASGSTITGYAMGWYRQAPRKERDLVAAITYTGTSTYYADTVKGRYTISRDNAKNTVYLEMNSLNPEDTAVYYCAARLAWWKTYIRYYYWGKGTQVTVSS | high polyreactivity
QVKLVESGGRLVQAGGSLRLSCAASGIIFFSYAMRSYRQAPGKERELVAAISGTGGNTYYADSVKGRFTISRDNAKNTVYFQMNSLKPEDTAVYYCAADQEWYYYFVSFAYYILDYWGQGTEVTVSS | high polyreactivity
QVKLVESGGRLVQAGGSLRLTCAASGFIFLNYSMGWYRQAHGKERELVAAISRSGGRTYYADSVTGRFTISRDYAKNTVYLQMNSLKPEDPAVYYCAVYIYGIVFYFTYMYVNCYDYWGQGTQVTVSS | high polyreactivity
QVKLVESGGVLVQAGGSLRLSCAASGSIFVYNAMGWYRQAPGKERELVAAISQRGGSTYYADSVKGRFTISRDNAKNSVYLQMNSLKPEDTAVYYCAAGPGDSGDDYWGQGSQVTVSS | low polyreactivity
QVKLVESGRGLVQAGGSLRISCDASGSIFYYYAMGWYRQAPGKERELVAAINGGDTNYADSVKGRFTISRDNAKNTVYLQMTSLKPEDTAVYYCAAEGVTVEWDYDYWGQATQVTVSS | low polyreactivity
QVKLVESGRGLVQAGGSLRLSCAASGFTFRYYGMGWYRQAPGKERELVASITASGVSTSYADSVKGRFTISRDNAKNTVYLQMNSLKPEDTAVYYCNAVVGAWSLFDYWGQGTQVTVSS | high polyreactivity

Sequence | polyreactivity (PSR sort gate)
QVKLVESGRGLVQAGGSLRLSCAASGYKCIVYTMGWYRQAPGKERELVAAISSGGITAYADSVKGRITISRDNAKNTVYLQMNSLKPEYTAVYYWGQGTQVTVSS | low polyreactivity
QVKLVESRGGLVQAGGSLRLSCAASGFTFFLYTMGWYRQAPGKERELVATITSAGTTNYADSVKGRFTISRDNAKNTVYLQMNSLIPEDTAVYYCNADRWEYDYWGQGTQVTVSS | low polyreactivity
QVKLVQSGGGLVEAGGSLLLSCAASGRIFDQYAMGWYRPAPGKERELVAAITTSGDNTYYADSVKGRFTISRDNAKNTVYLQMNSLKPEDTAVYYCKVDIDTFWYGSDYWGQVTQVTVSS | high polyreactivity
QVLLQESGGALVQAGGSLRLSCAASGTISTDIRMGWYRLAPGKEPEFVASIDGCSTTYYADSVKVRFTISRDNEKNTVYLQMNSLKPEDTAMYYCAAREATEFYLYYWGQGTQVTVSS | low polyreactivity
QVLLQESGGGLVQAGGSLRLGCAASGTISPAYYMGRSHQAPGKEREFVAAITYGTNTYYADSVKGRFTISRDNAKNTVYLQMNSLKPEDTAVYYCSATAGYNGAHDYWGQGTQVTVSS | low polyreactivity
QVLLQESGGGLVQAGGSLRLSCAASGSIFLFYTMGWNRQAPVKEREFVAGITLGTTTYNADSVKGRFTISRDNVKNTVYLQKNSLKPEDTAVYYCAVAVGHYTEFWYWGQGTQVTMSS | high polyreactivity
QVLLQESGGLGQAGCSLPMSCAASGSISTALSMGWYRQAPGKERELVATISDGASTNYADSVKGRFTISRVNAKNTVYLQMNSLKPEDTEVYYCADQSQYRQDHRYWGQGTQVTVSS | high polyreactivity
QVLLVESAAGLVQAGGSLRLSCAASGSTFQGNAMGGYRKAPGKERELVAAISRSGGSTYADSVKGRFTISRDNAKNTVYLQLNSLKPEDTAVYYCAAYSGVGYLWFDYWGQGTQVTVSS | low polyreactivity
QVLLVESCGGLVQAGGSLRLSCAASGRIFPLYAMGWYRQAPGKERELVAAISSGGTTYYADSVKGRFTISRDNAKNTVYLQMNSLKPEDTAVYYCNVEYVISWWMYDYWGQGTQVTVSS | low polyreactivity
QVLLVESGGCLVQAGGILRLSCAASGIIFRSNVMGWYRQEPGKASELVAAISTGGGRTYYADSVKGRFTISRDNAKNTVYLQMNSLKPEDTAVYYCATRDIGKQWTRYYYWGQGTQVTVSS | high polyreactivity
QVLLVESGGGLVHAGGSLRLSCAASGSISKINAMRRYRQAPGKERELVAAINTGDSTYYADSVKGRFTISRDNAKYTGYLQMNSLKPEDTAVYYCAAEGSPSGYDYWGQGTQVNVSS | low polyreactivity
QVLLVESGGGLVQAGGPLRLSCAASGFIIRTNAMGWYREEPGKERELDAAISRRGRTDYADSVKGRFTISRDNAKNTVYLQMKSLTPEESAVYYCNAYYAIQDSVHRYYFWGQGTQGTVSS | high polyreactivity
QVLLVESGGGLVQAGGSLRIICAASGLTFSDYAMRWYRQAPGKERELVAGISSGGSTYYADSVKGRFTISRDNAKNTVYLQMNSLKPEDTAVYYCAATRYNRWPIKFDYWGQGTQVTVSS | high polyreactivity
QVLLVESGGGLVQAGGSLRISCAASVRIVKSYAMGWYRQAPGKESELVAAISRGGRTNYADSVKGRFTISRDNAKNTVYLQMNSLKPEDTAVYYCAARFITPYDHYGYWGQGTQVTVSA | high polyreactivity
QVLLVESGGGLVQAGGSLRLSCAASGFIFRPNAMGWYRQAPGKERELVARITYRGGSTYYADSVKGRFTISRDNAKKTVYLKMNSLKPEDTAVYYCAARAVTYAGYTYNYWGQGTQVTVSS | high polyreactivity
QVLLVESGGGLVQAGGSLRLSCAASGFTFQLYAMGWYRQAPGKEREIVSAIRRNGGSTYYADSVKGRFTISRDNAKNTVYLQMNSLKPDDTAVYYCAADWYSYLHGTKYGYWGQGTQVTVSS | high polyreactivity
QVLLVESGGGLVQAGGSLRLSCAASGRIFYSNVMGWYIQAPGKERELVAAISGRTGGTYYADSVKGRFTISRDNAKNTVYLQMNSLKPEDTAVYYCAARVIYYYGSGPYDYWGQGTQVTVSS | low polyreactivity
QVLLVESGGGLVQAGGSLRLSCAASGRTFSINAMGWDRQAPGKERELVAAITKRRSTYYADSVKGRFTISRDNAKNSVYLQMNSLKPEDTAVYYCNARYRGRVYDRFGYWGQGTQVTVSS | high polyreactivity
QVLLVESGGGLVQAGGSLRLSCAASGSIFGQYTMGWYRQAPGKERELVAAINSSGDSTFYADSVKGRFTISRDNAKNTVYLQMNSLKPEDTAVYYCAADPYRYYFRAYGWHREGYYWGQGTQVTVSS | low polyreactivity
QVLLVESGGGLVQAGGSLRLSCAASGSIFYGYPMGWYRQAPGKERELVADIRSSGGSTYYADSVKGRFTISRDNAMNTVYLQMNSLKPEDTAVYYCAADSQELHQNSDYWGQGTQVTVSS | low polyreactivity
QVLLVESGGGLVQAGGSLRLSCAASGSNFYRNAMGWYRQAPGKERDFVAAISRSTGRTFYADSVKGRFTISRDNAKNTVYLQMKSLQPEDTAVYYCDAAAKAGTTPTRSYWRHDSWGQGTQVSVSS | high polyreactivity
